From US6534035B1, “Methods of inhibiting clot formation” (President and Fellows of Harvard College, priority 1998, dated 2003)
Where “and” joins values, the source holds several entries; their conditions need not be identical. Equal entries are not always repeated. One block for each compound: values may come before it.

Legend:
FXIIIa [1] = biological target: T1, FXIIIa (Homo sapiens, UniProt P00488); assay: FXIIIa catalytic half-life: crosslinking of substrates into fibrin clots of various ages; type: biochemical
T1 construct: purchased American Diagnostica
T1 sequence (P00488 39-732 limits assumed): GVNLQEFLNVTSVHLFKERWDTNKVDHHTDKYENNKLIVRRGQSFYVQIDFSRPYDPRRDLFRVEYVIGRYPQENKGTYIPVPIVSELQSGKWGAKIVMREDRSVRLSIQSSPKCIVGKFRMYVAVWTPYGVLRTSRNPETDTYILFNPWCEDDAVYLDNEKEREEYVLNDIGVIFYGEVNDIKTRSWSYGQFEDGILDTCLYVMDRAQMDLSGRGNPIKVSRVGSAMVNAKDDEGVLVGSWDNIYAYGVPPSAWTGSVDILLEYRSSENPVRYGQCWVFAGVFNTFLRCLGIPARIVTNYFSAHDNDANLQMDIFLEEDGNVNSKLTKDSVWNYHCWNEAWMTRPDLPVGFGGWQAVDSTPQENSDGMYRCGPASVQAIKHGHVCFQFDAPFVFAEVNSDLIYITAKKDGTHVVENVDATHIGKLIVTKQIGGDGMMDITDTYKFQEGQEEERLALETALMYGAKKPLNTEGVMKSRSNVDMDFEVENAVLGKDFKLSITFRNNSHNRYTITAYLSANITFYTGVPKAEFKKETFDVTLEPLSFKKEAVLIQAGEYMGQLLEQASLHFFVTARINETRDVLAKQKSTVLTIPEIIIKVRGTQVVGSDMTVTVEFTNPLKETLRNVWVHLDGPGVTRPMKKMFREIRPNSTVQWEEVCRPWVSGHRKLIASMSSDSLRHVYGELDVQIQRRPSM
Method: (§1) Experiments were performed to determine how long FXIIIa in clots could crosslink various substrates such as human ^125I -α2AP, α2AP13-24 (SEQ ID NO:2), and 5-(biotinamido)pentylamine, into fibrin. In a typical experiment, clots were prepared (50 μl final volume) in duplicate by combining fibrinogen (2 mg/ml final), CaCl2 (2 mM final), buffer (Tris-buffered saline pH 7.4) and thrombin (1 U/ml) and incubating at 37° C. Synchronous with the addition of thrombin, or up to 240 minutes afterwards, the FXIIIa substrates 5-(biotinamido)pentylamine (0.5 mM final), ^125I -α2AP (70 μg/ml final), and α2AP13-24 (0 to 1 mM final) were mixed and added to the clot. In one set of control samples, FXIIIa was inhibited with iodoacetamide (10 mg/ml) prior to the addition of substrate; to another set, no substrate was added. After 2 hours of incubation at 37° C., iodoacetamide (10 mg/ml) was added to stop the reaction. The tubes were then centrifuged at 14,000 rpm for 2 minutes, washed and compressed in 1 ml saline to remove unbound proteins, and centrifuged again at 14,000 rpm for 2 minutes. After removal of the supernatant, the clots were solubilized in 100 μL of 9M urea, pH 9.0 at 37° C. for 60 minutes. Then 100 μl of SDS reducing sample buffer was added and the clots were placed at 85° C. for 30 minutes until fully solubilized. The samples were examined by SDS-PAGE. Crosslinked ^125I-α2AP was detected and quantitated by phosphorimaging. Samples containing crosslinked α2AP13-24 and pentylamine substrates were electroblotted to PVDF membranes and detected by ^125I-streptavidin followed by phosphorimaging or by streptavidin-peroxidase followed by the developing agents 5-bromo-4-chloro-3-indolyl phosphate-nitro blue tetrazolium using methods known in the art. In experiments examining the effect of specific amino acid residues on the crosslinking of the α2AP13-24 peptide (SEQ ID NO:2) to fibrin, crosslinking was detected by immunoblotting with an anti-peptide antibody directed against this epitope followed by ^125I-protein A and phosphorimaging. […]

FXIIIa [2] = biological target: T1, FXIIIa; assay: Crosslinking of α2AP1-24 and variant peptides to fibrin clots; type: biochemical; details: 0.5 mM of each peptide clotted with human fibrinogen; compared to wild type α2AP1-24
Method: A 0.5 mM concentration of each peptide was clotted with human fibrinogen. After electrophoresis of the solubilized, reduced clots on 7.5% SDS-PAGE gels and transfer to PVDF membranes, the extent of crosslinking of each peptide was determined by incubating the membranes with a polyclonal antibody directed against the amino-terminus of α2AP, followed by incubation in ^125I-protein A, and exposure in a phosphorimager. Each bar reflects phosphorimage quantification of the fibrin crosslinking α2AP1-24 and the variant peptides. The mean±SD pixel volume of the quantified blots are shown.
Experiments were performed to determine how long FXIIIa in clots could crosslink various substrates such as human ^125I -α2AP, α2AP13-24 (SEQ ID NO:2), and 5-(biotinamido)pentylamine, into fibrin. In a typical experiment, clots were prepared (50 μl final volume) in duplicate by combining fibrinogen (2 mg/ml final), CaCl2 (2 mM final), buffer (Tris-buffered saline pH 7.4) and thrombin (1 U/ml) and incubating at 37° C. Synchronous with the addition of thrombin, or up to 240 minutes afterwards, the FXIIIa substrates 5-(biotinamido)pentylamine (0.5 mM final), ^125I -α2AP (70 μg/ml final), and α2AP13-24 (0 to 1 mM final) were mixed and added to the clot. In one set of control samples, FXIIIa was inhibited with iodoacetamide (10 mg/ml) prior to the addition of substrate; to another set, no substrate was added. After 2 hours of incubation at 37° C., iodoacetamide (10 mg/ml) was added to stop the reaction. The tubes were then centrifuged at 14,000 rpm for 2 minutes, washed and compressed in 1 ml saline to remove unbound proteins, and centrifuged again at 14,000 rpm for 2 minutes. After removal of the supernatant, the clots were solubilized in 100 μL of 9M urea, pH 9.0 at 37° C. for 60 minutes. Then 100 μl of SDS reducing sample buffer was added and the clots were placed at 85° C. for 30 minutes until fully solubilized. The samples were examined by SDS-PAGE. Crosslinked ^125I-α2AP was detected and quantitated by phosphorimaging. Samples containing crosslinked α2AP13-24 and pentylamine substrates were electroblotted to PVDF membranes and detected by ^125I-streptavidin followed by phosphorimaging or by streptavidin-peroxidase followed by the developing agents 5-bromo-4-chloro-3-indolyl phosphate-nitro blue tetrazolium using methods known in the art. In experiments examining the effect of specific amino acid residues on the crosslinking of the α2AP13-24 peptide (SEQ ID NO:2) to fibrin, crosslinking was detected by immunoblotting with an anti-peptide antibody directed against this epitope followed by ^125I-protein A and phosphorimaging. In some experiments, clots were formed by mixing 25 μl pooled human fresh frozen plasma with 25 μl 30 mM CaCl2 instead of using human fibrinogen.
Although FXIIIa can crosslink a number of lysine analogs to glutamine sites in macromolecules such as fibrin, its specificity for crosslinking glutamine-containing substrates (acyl donors) such as α2AP to fibrin has not been defined. To examine specificity, a wild-type α2AP fragment spanning residues 1-24 (MEPLGWQLTSGPNQEQVSPLTLLK; SEQ ID NO:16) and a panel of α2AP variant peptides (corresponding to residues 1-24 with the exception that one residue is altered from the wild type sequence; SEQ ID NO:11, 12, 13, 14, 15) was created with mutations of residues that represented other potential crosslinking sites or residues that are conserved among different α2APS from different species. […]

pulmonary emboli = assay: Lysis of radiolabeled pulmonary emboli in ferrets; type: in vivo, ferret
Description: Pulmonary embolisms were induced in ferrets using standard methods, e.g., that described in Butte et al., 1997, Circulation. 95:1886-1891). Male ferrets (weighing approximately 1 kg) were anesthetized with ketamine and acepromazine. After full anesthesia had been obtained, the jugular vein and carotid artery were exposed by an anterior midline incision and cannulated with 20G catheters. Pooled, citrated human plasma was mixed with ^125I-fibrinogen to achieve a specific activity of approximately 1,000,000 cpm/ml. Individual clots were formed by mixing ^125I-fibrinogen-labeled plasma (45 μl) with 2.5 μl of bovine thrombin (100 units/ml) and 2.5 μl of calcium chloride (0.4 M). […] The radioactive content of the clots was measured in a gamma counter immediately before injection. […] Successful embolization was evinced by the accumulation of radioactivity in the thorax.
All animals received weight-adjusted heparin at 100 units/kg (bolus), a dose sufficient to keep the activated partial thromboplastin time (aPTT) above 150 seconds throughout the procedure. […] The percentage of clot lysis was determined for each ferret by dividing the total residual radioactivity in the thorax by that in the initial thrombi. […]

fibrinogen = assay: Residual fibrinogen level by sodium sulfite method; type: in vivo, ferret; details: ferrets, before and after treatment
Method: FIG. 2 is a bar graph showing the effects of factor XIIIa activity and TPA on residual fibrinogen levels. Fibrinogen levels were measured in 25 ferrets by sodium sulfite precipitation and expressed as a percentage of the fibrinogen level prior to the experiments (“before study” level was defined as 100%). The percent residual fibrinogen level (mean±SD) is shown for each group of 5 ferrets at the end of the experiment. The following conditions were evaluated: Control, normal factor XIIIa activity, no TPA; F13-I, factor XIIIa inhibited, no TPA; TPA, TPA with normal factor XIIIa activity; TPA+F13-I, TPA with inhibited factor XIIIa activity; TPA+α2AP-I, TPA with inhibited α2 antiplasmin-fibrin crosslinking.
Blood samples were collected on K3EDTA (0.15% solution, final concentration) with aprotinin (50 kallikrein units/ml). Platelet-poor plasma was obtained by centrifugation of whole blood and assayed for fibrinogen by a standard sodium sulfite method such as that described by Rampling et al. 1976, Clin Chim Acta. 67:43-52.

[3] = Activated partial thromboplastin time in heparinized ferrets; type: in vivo, ferret; details: heparin bolus 100 units/kg, throughout the experiment
Method: All animals received weight-adjusted heparin at 100 units/kg (bolus), a dose sufficient to keep the activated partial thromboplastin time (aPTT) above 150 seconds throughout the procedure. TPA was given as a continuous infusion over 2 hours (1 mg/kg in 5 ml of normal saline). […] The thorax was dissected and all intrathoracic structures were removed for gamma counting to detect residual thrombi. The percentage of clot lysis was determined for each ferret by dividing the total residual radioactivity in the thorax by that in the initial thrombi. A total of 28 animals was studied; three were excluded because of anesthetic-related death, improper TPA infusion, and failed embolism.

FXIIIa [4] = biological target: T1, FXIIIa; assay: Dose-dependent crosslinking of α2AP13-24 into fibrin clots; type: biochemical; details: purified human fibrinogen
Method: as §1, with “In one set of control samples, FXIIIa was inhibited with iodoacetamide (10 mg/ml) prior to the addition of substrate; to another set, no substrate was added. After 2 hours of incubation at 37° C., iodoacetamide (10 mg/ml) was added to stop the reaction. The tubes were then centrifuged at 14,000 rpm for 2 minutes, washed and compressed in 1 ml saline to remove unbound proteins, and centrifuged again at 14,000 rpm for 2 minutes. After removal of the supernatant, the clots were solubilized in 100 μL of 9M urea, pH 9.0 at 37° C. for 60 minutes. Then 100 μl of SDS reducing sample buffer was added and the clots were placed at 85° C. for 30 minutes until fully solubilized. The samples were examined by SDS-PAGE.” left out

FXIIIa [5] = biological target: T1, FXIIIa; assay: Variant peptides as inhibitors of the crosslinking of α2AP13-24 into fibrin; type: biochemical; details: peptides used as inhibitors
Method: as §1, with “In one set of control samples, FXIIIa was inhibited with iodoacetamide (10 mg/ml) prior to the addition of substrate; to another set, no substrate was added. After 2 hours of incubation at 37° C., iodoacetamide (10 mg/ml) was added to stop the reaction. The tubes were then centrifuged at 14,000 rpm for 2 minutes, washed and compressed in 1 ml saline to remove unbound proteins, and centrifuged again at 14,000 rpm for 2 minutes. After removal of the supernatant, the clots were solubilized in 100 μL of 9M urea, pH 9.0 at 37° C. for 60 minutes. Then 100 μl of SDS reducing sample buffer was added and the clots were placed at 85° C. for 30 minutes until fully solubilized. The samples were examined by SDS-PAGE.” left out

Compound: O[C@H](CS)[C@H](O)CS (racemic) [DTT, dithiothreitol]
effect of reducing agent on crosslinking in old clots (FXIIIa [1]; added to reaction mixtures, 2 or 4 hour old clots): restored the crosslinking of pentylamine or α2AP13-24 to fibrin clots

Compound: MEPLGWQLTSGPNQEAVSPLTLLK (listed as Homo sapiens) [Q16A, α2AP1-24 variant peptide]
crosslinking of peptide to fibrin (FXIIIa [2]): crosslinked into fibrin at rates comparable to that of the wild type

Compound: tissue plasminogen activator [TPA]
lysis of pulmonary emboli compared with other group (pulmonary emboli; FIGS. 1A and 1B group comparisons): significantly increased lysis
lysis of pulmonary emboli (mean±SD) (pulmonary emboli; TPA 1 mg/kg infused over 2 hours, heparin 100 units/kg, 4 hours after embolization): 32.3±7.7% and 32.2±7.7%
residual fibrinogen level at end of study, percentage of initial value (fibrinogen): nonspecific degradation of fibrinogen did not occur

Compound: heparin
activated partial thromboplastin time (aPTT) [3]: above 150 seconds

Compound: MEPLGWQLTSGPNQEQVSPLTNLK (listed as Homo sapiens) [L22N, α2AP1-24 variant peptide]
crosslinking of peptide to fibrin (FXIIIa [2]): crosslinked into fibrin at rates comparable to that of the wild type

Compound: MEPLGWQLTSGPNQAQVSPLTLLK (MEPLGWQLTSGPNQAQVSPLTLLK; listed as Homo sapiens) [E15A, α2AP1-24 variant peptide]
crosslinking of peptide to fibrin (FXIIIa [2]): crosslinked into fibrin at rates comparable to that of the wild type

residual FXIIIa crosslinking of substrate (FXIIIa [1]; substrate added to 2 or 4 hour old clots): little residual FXIIIa crosslinking
Compound: NCCCCCNC(=O)CCCC[C@@H]1SC[C@@H]2NC(=O)N[C@@H]21 [pentylamine-biotin, 5-(biotinamido)pentylamine]

Compound: hirudin [reference compound]
effect on α2AP13-24 peptide-fibrin crosslinking (FXIIIa [4]): blocked α2AP13-24 peptide-fibrin crosslinking

crosslinking of peptide to fibrin (FXIIIa [2]): not efficiently crosslinked to fibrin
Compound: Q14A: α2AP1-24 variant peptide containing mutation Q14A (MEPLGWQLTSGPNAEQVSPLTLLK; listed as Homo sapiens)
competition for crosslinking of α2AP13-24 into fibrin (FXIIIa [5]): all peptides but Q14A and V17N competed for crosslinking

crosslinking of peptide to fibrin (FXIIIa [2]): not efficiently crosslinked to fibrin
Compound: V17N: α2AP1-24 variant peptide containing mutation V17N (MEPLGWQLTSGPNQEQNSPLTLLK; listed as Homo sapiens)
competition for crosslinking of α2AP13-24 into fibrin (FXIIIa [5]): all peptides but Q14A and V17N competed for crosslinking
